Reference: US20090298769A1
Blank lines part the entries; values can stand above or below the substance they belong to.

Key:
[1] = biological target: αvβ3 integrin, wild type, on mouse lung endothelial cells (mouse) (UniProt P43406); assay: flow cytometry, FITC-fibrinogen on WT mouse lung EC
[2] = biological target: DiYF β3 integrin (αvβ3 with β3 Tyr747Phe and Tyr759Phe) on lung endothelial cells of knock-in mice (mouse) (UniProt P43406); assay: flow cytometry, FITC-fibrinogen on DiYF mouse lung EC
[3] = biological target: VEGFR-2 of mouse lung endothelial cells (mouse) (UniProt P35918); assay: cell-based or functional assay
[4] = biological target: αvβ3 integrin on human endothelial cells (HUVEC; vessels of human prostate tissue) (human) (UniProt P06756); assay: flow cytometry, WOW-1 Fab on HUVEC
[5] = biological target: αvβ3 integrin on human endothelial cells (HUVEC; vessels of human prostate tissue) (human) (UniProt P06756); assay: flow cytometry (FACS), WOW-1 Fab on HUVEC
[6] = biological target: αvβ3 integrin, wild type, on mouse lung endothelial cells (mouse) (UniProt P43406); assay: flow cytometry, WOW-1 Fab on WT mouse lung EC
[7] = biological target: αvβ3 integrin on human endothelial cells (HUVEC; vessels of human prostate tissue) (human) (UniProt P06756); assay: immunohistochemistry of human prostate tissue
[8] = biological target: DiYF β3 integrin (αvβ3 with β3 Tyr747Phe and Tyr759Phe) on lung endothelial cells of knock-in mice (mouse) (UniProt P43406); assay: flow cytometry, WOW-1 Fab on DiYF mouse lung EC
[9] = biological target: αvβ3 integrin on human endothelial cells (HUVEC; vessels of human prostate tissue) (human) (UniProt P06756); assay: flow cytometry, WOW-1 Fab on HUVEC transfected with dominant negative c-Src
[10] = biological target: DiYF β3 integrin (αvβ3 with β3 Tyr747Phe and Tyr759Phe) on lung endothelial cells of knock-in mice (mouse) (UniProt P43406); assay: cell-based or functional assay

Chain of αvβ3 integrin on human endothelial cells (HUVEC; vessels of human prostate tissue) (human) (P06756 31-1048, chain 1 of 2): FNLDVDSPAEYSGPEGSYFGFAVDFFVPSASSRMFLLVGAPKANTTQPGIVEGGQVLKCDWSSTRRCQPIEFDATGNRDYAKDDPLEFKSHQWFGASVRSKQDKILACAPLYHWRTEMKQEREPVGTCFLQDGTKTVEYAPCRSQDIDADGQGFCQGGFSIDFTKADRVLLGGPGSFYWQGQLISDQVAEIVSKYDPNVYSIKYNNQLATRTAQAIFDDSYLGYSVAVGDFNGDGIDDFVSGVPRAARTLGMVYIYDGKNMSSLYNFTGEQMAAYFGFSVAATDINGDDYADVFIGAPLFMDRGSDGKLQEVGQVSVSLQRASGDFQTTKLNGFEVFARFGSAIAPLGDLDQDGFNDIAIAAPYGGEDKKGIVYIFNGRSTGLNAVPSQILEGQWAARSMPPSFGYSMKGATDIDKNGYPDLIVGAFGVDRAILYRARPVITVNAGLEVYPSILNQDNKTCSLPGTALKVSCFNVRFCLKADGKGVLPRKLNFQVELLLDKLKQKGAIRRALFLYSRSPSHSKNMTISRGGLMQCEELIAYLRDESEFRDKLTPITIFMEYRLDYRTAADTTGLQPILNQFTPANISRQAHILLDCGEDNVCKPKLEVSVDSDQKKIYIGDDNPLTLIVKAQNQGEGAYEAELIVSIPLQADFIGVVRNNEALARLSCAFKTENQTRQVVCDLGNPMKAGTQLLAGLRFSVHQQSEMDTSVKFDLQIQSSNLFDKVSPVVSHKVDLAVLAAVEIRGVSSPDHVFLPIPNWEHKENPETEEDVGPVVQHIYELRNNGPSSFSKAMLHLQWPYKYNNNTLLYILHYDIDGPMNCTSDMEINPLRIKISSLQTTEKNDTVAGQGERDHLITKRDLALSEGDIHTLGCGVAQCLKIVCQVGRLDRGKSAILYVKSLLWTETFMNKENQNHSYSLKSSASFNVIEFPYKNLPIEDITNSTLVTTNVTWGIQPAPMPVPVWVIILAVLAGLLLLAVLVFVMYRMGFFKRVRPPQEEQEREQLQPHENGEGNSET
Chain of αvβ3 integrin on human endothelial cells (HUVEC; vessels of human prostate tissue) (human) (P05106 27-788, chain 2 of 2, further chain): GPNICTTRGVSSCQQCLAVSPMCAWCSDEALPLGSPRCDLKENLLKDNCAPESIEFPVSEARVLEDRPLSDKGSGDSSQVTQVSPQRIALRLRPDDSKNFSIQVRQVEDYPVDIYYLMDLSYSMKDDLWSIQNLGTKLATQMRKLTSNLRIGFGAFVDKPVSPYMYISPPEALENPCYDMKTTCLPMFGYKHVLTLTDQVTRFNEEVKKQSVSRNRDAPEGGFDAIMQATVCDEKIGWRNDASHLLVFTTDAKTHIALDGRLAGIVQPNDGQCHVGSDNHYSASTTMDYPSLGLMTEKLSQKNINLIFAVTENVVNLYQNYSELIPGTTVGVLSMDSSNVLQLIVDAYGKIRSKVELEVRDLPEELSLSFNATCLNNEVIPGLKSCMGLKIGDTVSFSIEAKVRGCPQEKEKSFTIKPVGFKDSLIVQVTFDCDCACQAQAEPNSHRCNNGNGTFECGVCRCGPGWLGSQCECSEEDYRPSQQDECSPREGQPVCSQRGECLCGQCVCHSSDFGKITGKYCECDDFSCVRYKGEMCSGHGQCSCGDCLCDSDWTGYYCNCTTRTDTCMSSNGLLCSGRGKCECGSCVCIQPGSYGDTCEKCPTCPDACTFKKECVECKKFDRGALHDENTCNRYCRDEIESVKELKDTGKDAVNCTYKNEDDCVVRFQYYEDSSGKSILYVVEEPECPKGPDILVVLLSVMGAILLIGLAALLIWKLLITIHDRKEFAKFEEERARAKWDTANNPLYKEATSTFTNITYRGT
Chain of DiYF β3 integrin (αvβ3 with β3 Tyr747Phe and Tyr759Phe) on lung endothelial cells of knock-in mice (mouse) (P43406 31-1044, chain 1 of 2): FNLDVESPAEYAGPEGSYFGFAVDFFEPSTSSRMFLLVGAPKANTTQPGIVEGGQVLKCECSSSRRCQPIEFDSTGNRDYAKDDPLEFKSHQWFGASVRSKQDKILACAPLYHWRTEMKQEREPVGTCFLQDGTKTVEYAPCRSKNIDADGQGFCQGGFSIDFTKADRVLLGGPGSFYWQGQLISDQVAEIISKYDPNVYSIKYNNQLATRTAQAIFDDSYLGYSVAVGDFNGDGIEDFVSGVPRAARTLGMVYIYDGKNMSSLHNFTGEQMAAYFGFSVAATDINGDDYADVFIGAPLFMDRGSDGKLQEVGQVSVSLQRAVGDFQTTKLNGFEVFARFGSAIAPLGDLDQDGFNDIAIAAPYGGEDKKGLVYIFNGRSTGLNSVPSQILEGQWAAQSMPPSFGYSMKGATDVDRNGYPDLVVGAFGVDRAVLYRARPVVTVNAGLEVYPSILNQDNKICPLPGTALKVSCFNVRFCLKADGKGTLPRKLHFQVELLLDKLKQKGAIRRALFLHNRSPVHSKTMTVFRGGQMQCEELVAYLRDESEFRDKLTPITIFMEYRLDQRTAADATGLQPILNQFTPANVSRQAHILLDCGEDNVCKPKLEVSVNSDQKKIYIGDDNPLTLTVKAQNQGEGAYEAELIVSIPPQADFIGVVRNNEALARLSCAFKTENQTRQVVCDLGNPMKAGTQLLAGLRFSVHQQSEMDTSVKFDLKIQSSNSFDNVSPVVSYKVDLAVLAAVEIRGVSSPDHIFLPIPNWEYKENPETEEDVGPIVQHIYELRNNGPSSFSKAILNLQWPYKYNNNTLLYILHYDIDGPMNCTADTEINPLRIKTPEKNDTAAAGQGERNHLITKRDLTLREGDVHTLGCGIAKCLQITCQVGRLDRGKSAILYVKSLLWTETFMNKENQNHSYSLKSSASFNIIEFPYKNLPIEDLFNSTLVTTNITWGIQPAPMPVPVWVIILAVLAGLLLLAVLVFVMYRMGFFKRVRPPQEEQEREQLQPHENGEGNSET
Chain of DiYF β3 integrin (αvβ3 with β3 Tyr747Phe and Tyr759Phe) on lung endothelial cells of knock-in mice (mouse) (O54890 26-787 Y772F/Y784F, chain 2 of 2, further chain): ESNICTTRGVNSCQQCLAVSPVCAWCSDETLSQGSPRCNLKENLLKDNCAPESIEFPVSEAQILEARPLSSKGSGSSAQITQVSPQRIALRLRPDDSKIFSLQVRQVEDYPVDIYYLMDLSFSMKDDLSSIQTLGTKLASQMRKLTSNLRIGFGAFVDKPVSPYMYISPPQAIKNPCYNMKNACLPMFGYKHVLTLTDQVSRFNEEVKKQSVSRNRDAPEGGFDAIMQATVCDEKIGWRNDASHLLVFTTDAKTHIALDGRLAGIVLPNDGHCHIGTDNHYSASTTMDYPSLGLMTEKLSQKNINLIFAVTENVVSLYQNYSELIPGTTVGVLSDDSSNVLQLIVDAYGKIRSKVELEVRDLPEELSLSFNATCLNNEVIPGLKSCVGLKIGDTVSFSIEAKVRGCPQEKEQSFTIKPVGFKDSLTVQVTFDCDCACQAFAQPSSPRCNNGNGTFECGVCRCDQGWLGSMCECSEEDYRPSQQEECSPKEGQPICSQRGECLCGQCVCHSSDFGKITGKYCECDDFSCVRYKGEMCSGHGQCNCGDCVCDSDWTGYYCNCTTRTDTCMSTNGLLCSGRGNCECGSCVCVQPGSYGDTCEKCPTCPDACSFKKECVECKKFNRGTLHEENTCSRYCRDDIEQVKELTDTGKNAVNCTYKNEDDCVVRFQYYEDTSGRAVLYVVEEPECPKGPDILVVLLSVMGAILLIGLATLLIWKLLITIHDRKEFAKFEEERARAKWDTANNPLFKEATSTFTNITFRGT
Chain of VEGFR-2 of mouse lung endothelial cells (mouse) (P35918 20-1345): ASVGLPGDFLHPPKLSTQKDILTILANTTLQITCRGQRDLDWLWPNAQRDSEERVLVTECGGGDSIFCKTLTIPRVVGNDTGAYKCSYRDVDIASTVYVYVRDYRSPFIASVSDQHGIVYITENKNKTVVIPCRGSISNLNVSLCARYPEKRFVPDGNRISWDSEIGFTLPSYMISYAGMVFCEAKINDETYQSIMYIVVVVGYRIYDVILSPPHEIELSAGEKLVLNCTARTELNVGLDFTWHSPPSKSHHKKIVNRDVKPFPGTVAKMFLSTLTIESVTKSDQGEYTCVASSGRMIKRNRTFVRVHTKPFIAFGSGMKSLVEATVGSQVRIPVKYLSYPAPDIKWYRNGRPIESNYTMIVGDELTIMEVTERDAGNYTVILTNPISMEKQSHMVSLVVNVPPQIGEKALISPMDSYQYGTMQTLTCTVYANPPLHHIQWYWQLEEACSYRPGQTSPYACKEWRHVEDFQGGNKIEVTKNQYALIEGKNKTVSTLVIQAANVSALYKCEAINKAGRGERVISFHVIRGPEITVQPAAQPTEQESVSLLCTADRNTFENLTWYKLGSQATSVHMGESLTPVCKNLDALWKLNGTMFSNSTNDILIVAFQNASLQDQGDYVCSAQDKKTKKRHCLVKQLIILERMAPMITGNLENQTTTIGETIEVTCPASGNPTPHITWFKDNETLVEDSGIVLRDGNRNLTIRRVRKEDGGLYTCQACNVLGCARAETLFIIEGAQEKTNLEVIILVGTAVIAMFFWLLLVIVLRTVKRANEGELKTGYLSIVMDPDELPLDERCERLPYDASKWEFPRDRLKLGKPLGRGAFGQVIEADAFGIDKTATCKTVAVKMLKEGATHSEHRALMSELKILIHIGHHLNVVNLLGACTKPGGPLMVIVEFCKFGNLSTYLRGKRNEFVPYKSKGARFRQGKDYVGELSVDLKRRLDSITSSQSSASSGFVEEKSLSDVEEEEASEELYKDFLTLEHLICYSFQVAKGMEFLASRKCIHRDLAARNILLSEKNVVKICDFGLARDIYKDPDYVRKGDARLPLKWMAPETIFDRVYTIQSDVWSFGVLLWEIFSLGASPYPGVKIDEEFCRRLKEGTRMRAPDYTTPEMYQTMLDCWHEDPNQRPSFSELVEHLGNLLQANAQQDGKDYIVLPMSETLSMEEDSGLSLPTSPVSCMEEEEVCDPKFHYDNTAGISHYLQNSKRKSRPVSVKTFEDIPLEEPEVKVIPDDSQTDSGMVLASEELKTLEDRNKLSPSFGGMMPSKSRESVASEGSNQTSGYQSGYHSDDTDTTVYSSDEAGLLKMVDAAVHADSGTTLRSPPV

fold increase of binding on MnCl2 stimulation [1]: > 40 fold
fold increase of binding on VEGF stimulation [1]: > 6 fold
fold increase of binding on MnCl2 stimulation [2]: 17 fold
fold increase of binding on VEGF stimulation [2]: 3 fold
Substance: FITC-labeled fibrinogen (ligand)

VEGFR-2 phosphorylation in DiYF EC [3]: 2.5 fold
VEGFR-2 phosphorylation in WT EC [3]: 6 fold
Substance: VEGF-A165 (ligand)

Substance: WOW-1 Fab
fold increase of binding on VEGF stimulation [4]: 6 fold
fold increase of binding on VEGF-A165 stimulation [5]: 6 fold
fold increase of binding on MnCl2 stimulation [6]: 30 fold
fold increase of binding on VEGF stimulation [6]: 9 fold
fold increase of WOW-1 density, prostate carcinoma against normal prostate tissue [7]: 2.7 fold
fold increase of binding on MnCl2 stimulation [8]: 14 fold
fold increase of binding on VEGF stimulation [8]: 3.5 fold
fold reduction of VEGF-triggered αvβ3 activation (WOW-1 binding) by dominant negative c-Src [9]: > 2 fold

fold decrease in cell adhesion to vitronectin, DiYF EC against WT EC [10]: 2 fold
Substance: vitronectin (ligand)
